The target in this assay is xTCF1. The experiment in a line: co-IP; binding competition: HEK293T cells transfected with flag-TCF and β-cat1 or β-cat4 alone, together, or with β-cat2 as control; IP with FLAG-M2 beads; precipitated β-catenins quantified and normalised against total β-catenins in whole cell lysates.

Consider Smed-β-catenin1 (natural protein), for which the relative binding to TCF, β-cat1 alone and β-cat1+β-cat2 co-transfected compared (negative control) is 1.11; the relative binding to TCF, β-cat1 alone and β-cat1+β-cat4 co-transfected compared was determined as 0.63.

Smed-β-catenin4 (natural protein): the relative binding to TCF, β-cat4 alone and β-cat1+β-cat4 co-transfected compared was determined as 0.51; the relative binding to TCF, β-cat4 alone and β-cat4+β-cat2 co-transfected compared (negative control) came to 0.91.
